# Source: US12692310B2, “ASIC1 channel antagonist antibody” (ShanghaiTech University, priority 2019, dated 2026)
# Where two headings read alike, the source gives them in different places. No end group written: not given here.
# T1: hASIC1a (Homo sapiens, UniProt P78348)
# T1 construct: expressed in transfected cells
# T1 sequence (P78348 1-528): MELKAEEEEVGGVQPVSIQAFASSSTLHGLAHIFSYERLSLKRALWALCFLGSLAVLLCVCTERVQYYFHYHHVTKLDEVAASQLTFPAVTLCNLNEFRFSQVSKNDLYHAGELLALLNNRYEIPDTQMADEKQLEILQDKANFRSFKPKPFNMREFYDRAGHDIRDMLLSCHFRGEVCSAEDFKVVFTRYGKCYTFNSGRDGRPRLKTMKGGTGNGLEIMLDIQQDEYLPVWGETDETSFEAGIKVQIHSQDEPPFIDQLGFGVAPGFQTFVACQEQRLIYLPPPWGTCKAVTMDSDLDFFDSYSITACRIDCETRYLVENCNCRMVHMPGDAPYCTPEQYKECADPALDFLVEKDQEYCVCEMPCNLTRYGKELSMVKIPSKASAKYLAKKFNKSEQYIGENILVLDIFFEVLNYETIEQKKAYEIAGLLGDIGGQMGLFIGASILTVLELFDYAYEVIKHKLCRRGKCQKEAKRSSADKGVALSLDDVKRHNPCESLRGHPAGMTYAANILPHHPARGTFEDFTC
# T2: hASIC1a-eYFP (human, UniProt P78348 1-528)
# T2 construct: whole, on cells; On CHO-K1 cells, stably (6H7) or transiently transfected; also called full-length hASIC1a (1-528 amino acids) fused with eYFP; CHO-K1/hASIC1a cells; not shown: C-terminal eYFP fusion
# T2 sequence (looked up): T1 sequence (P78348 1-528)
# B1: ASC03 (scFv, V domains shown)
# VH: QVQLVESGAEVKKPGSSVKVSCKASGGNFRKYSISWVRQAPGQGLEWMGWISAYNGNTNYAQKLQGRVTMTTDTSTSTAYMELRSLRSDDTAVYYCARDFDPYYDAFDIWGQGTTVTVSS
# VL: QSALTQPASVSGSPGQSITISCTGTSSDVGAYNYVSWYQQHPGKAPKLMIYDVSNRLSGVSNRFSGSKSGNRASLTISGLQAEDEADYYCSSYRSGNSLAFGGGTKLTVLG
# notes: also called ASC03 scFv; ASC03 (scFv format)
# B2: ASC04 (scFv, V domains shown)
# VH: QVQLVQSGAEVKKPGSSVKVSCKASGGTFSTYAINWVRQAPGQGLEWMGWMNPNSGNTGYAQKFQGRVTMTRNTSISTAYMELSSLRSEDTAVYYCARYSYGMDVWGQGTTVTVSS
# VL: QAVLTQPSSLSASPGASVSLTCTLRSGINVGAYRIYWYQQKPGSPPQFLLRYKSDSDKQQGSGVPSRFSGSRDASANAGILLISGLRSEDEADYYCAIWHSSAWVFGGGTKLTVLG
# notes: also called ASC04 scFv; ASC04 (scFv format)
# B3: ASC02 (scFv, V domains shown)
# VH: QVQLVQSGAEVKKPGASMKVSCTTSGYTVTGYYIHWLRQAPGQGFEWMGWINPNLGVTNYAQKFQGRVSMTRDPSIKTAYLELSGLRSDDTAMYYCARASTGGIFYDYWGQGTLVTVSS
# VL: NFMLTQPHSMSESPGKTVTISCTRSSGNIASNYVQWYQQRPGSSPTTVIYDDNQRPSGVPDRFSGSIDSISNSASLTISGLKTEDEADYYCQSYDSSSVIFGGGTKLTVLG
# notes: also called ASC02 scFv; ASC02 (scFv format)
# B4: venom peptide PcTx1 fused with Fc (PcTx1-Fc) (Fc fusion)
# chain: EDCIPKWKGCVNRHGDCCEGLECWKRRRSFEVCVPKTPKT
# modifications: ends and bridges not checked; also: fused with Fc, isotype, linker and order not given here
# Assays:
# hASIC1a = molecular target: T1, hASIC1a; test: Whole-cell patch clamp, acid-induced hASIC1a currents in stable CHO-K1 cells; assay type: cell-based
# Method: Electrophysiological Experiments. The inward cellular ASIC1a current was recorded from a single cell using standard whole-cell recording techniques by a patch-clamp amplifier (Axon 200B; Axon Instruments). Membrane currents were sampled and analyzed using a Digidata 1320A interface and a personal computer with Clampex and Clampfit software (Version 9.0.1; Axon Instruments). For a typical experiment, the extracellular fluid (ECF) used contained 150 mM NaCl, 5 mM KCl, 10 mM HEPES, 10 mM D-glucose, 2 mM CaCl2, and 1.0 mM MgCl2, with the osmotic pressure in the range of 320-335 mOsm, and pH 7.4 adjusted with 5 M NaOH. Patch electrodes (4-6 MΩ) contained 30 mM NaCl, 120 mM KCl, 0.5 mM CaCl2, 1 mM MgCl2, 10 mM HEPES, 2 mM MgATP, and 5 mM EGTA (pH 7.2 adjusted with 5 M KOH) at 300 mOsm. The ASIC1a activating ECF is identical to the normal ECF, except that MES was used to replace HEPES to maintain the ECF at pH 6.0. A coverslip with discretely distributed individual CHO-ASIC1a stable cells (6H7) on the surface was placed into a recording chamber under a constant perfusion (~2-3 mL/min) generated by an ALA 8 channel perfusion system (ALA Scientific Instruments Inc.) mounted on an inverted microscope. After achieving the break-in (whole-cell) configuration, the cell was voltage clamped at a holding potential of −70 mV. The normal ECF (pH 7.4) was first perfused onto the patched cell, and then, the activating ECF of pH 6.0 was rapidly applied to elicit a maximum inward ASIC1a current as control current. When testing the inhibition effect of the antibody, ECFs of pH 7.4 containing different concentrations of ASC06-IgG1 were perfused from low to high concentration into the recording chamber for 10-15 min. To measure the inhibition of the current, the activating ECFs of pH 6.0 containing the corresponding concentrations of the testing antibodies were applied to the same patched 6H7 cell to generate the inward currents that can be normalized to the control current of the same cell. […] Data acquired from four to five cells were used for statistical calculation of inhibition effects.
# The function of ASC06-IgG1 was characterized using electrophysiology approach. The effect of ASC06-IgG1 antibody on the acid-induced, hASIC1a-mediated electrical current in cells was analyzed. PcTx1 was used as a positive control. […] The amplitudes of the hASIC1a-mediated inward currents of the stable cells were recorded and quantitated in the absence and presence of ASC06-IgG1, with venom peptide PcTx1 (100 nM) used as positive control. […] Unlike the sustained inhibition with the antibody after washing, the inhibition with PcTx1 could be readily washed out within 5 minutes (FIG. 5C).
# [1] = tested on: MCAO-induced ischemic stroke model mice; test: Middle cerebral artery occlusion (MCAO)-induced ischemic stroke model; assay type: in vivo, mouse; conditions: 4 μL i.c.v. 3 h after ischemia; 100 nM PcTx1 or 3.0 μg/μL ASC06-IgG1; 24 h after injection
# Method: The Middle Cerebral Artery Occlusion (MCAO) Model. Animal care and the experimental protocols were approved by the Animal Ethics Committee of Shanghai Jiao Tong University School of Medicine, Shanghai, China. A transient ischemic stroke in the left brain hemisphere was established in male mice (C57 BL/6, 20-25 g) using middle cerebral artery occlusion (MCAO) for 1 h before reperfusion. Three hours after ischemia, a total of 4 μL of vehicle solution (PBS) in the absence or presence of neuroprotective agents) 100 nM PcTx1 or 3.0 μg/μL endotoxin-free ASC06-IgG1 ([…])) was administered by an intracerebroventricular (i.c.v.) injection on the contralateral side of the brain hemisphere. An irrelevant endotoxin-free antibody (3.0 μg/μL, […]) was used as isotype control. […] Mice were sacrificed 24 h after the i.c.v. injection. […] The infarct area was calculated by subtracting the normal area stained with TTC in the ischemic hemisphere from that of the nonischemic hemisphere. The infarct volume was calculated by summing infarction areas of all sections and multiplying by slice thickness.
# To determine if the protective effect of antibody ASC06-IgG1 in vitro could be extended to pathologies in vivo, the middle cerebral artery occlusion (MCAO) model was used to study the antibody's neuroprotective effect. […] The infarct volume of the cortex and striatum were calculated 24 hours after the injection. […]
# [2] = molecular target: truncated hASIC1a (amino acids 13-464) (human) (UniProt P78348); test: Octet, scFv format, ΔhASIC1a nanodiscs
# hASIC1a-eYFP = molecular target: T2, hASIC1a-eYFP; test: immunocytochemistry, confocal microscopy, CHO-K1 cells expressing hASIC1a-eYFP
# [3] = molecular target: truncated hASIC1a (amino acids 13-464) (human) (UniProt P78348); test: Octet, scFv format at 500 nM, ΔhASIC1a nanodiscs
# [4] = molecular target: truncated hASIC1a (amino acids 13-464) (human) (UniProt P78348)
Molecule,"inhibition of the acid-induced current, in words (hASIC1a; 100 nM, positive control)",time for inhibition to be washed out (hASIC1a; washout experiment) [min],infarct volume (compared with the contralateral brain region) [1],Kd [2] [nM],binding result (hASIC1a-eYFP),Response [3],Kd [4] [nM]
"Psalmotoxin-1 [PcTx1, reference compound]",nearly complete inhibition,≤ 5,about 17%,–,–,–,–
B1,–,–,–,259,binds,0.269,–
B2,–,–,–,20.8,binds,0.995,–
B3,–,–,–,262,binds,0.289,–
B4,–,–,–,–,–,–,1
